Test results reported in patent US20210238249.

Tests used:
[1] = molecular target: recombinant fusion protein TOM70-UB-p53 (UniProt P07213)
[2] = molecular target: fusion protein TOM70-(GGGGS)3-UB-p53 (UniProt P07213)

How did the “cleavage of the ubiquitin sequence by UBP1, 37 C for 1 hour, SDS-PAGE” value [1] turn out when UBP1 enzyme was run?
Its value is “the dissociation of the ubiquitin protein from the fusion protein did not occur at all by UBP1”.

And the “cleavage of the ubiquitin sequence by UBP1, 37 C for 1 hour, SDS-PAGE” value [2]?
The value was “the 3′ end of ubiquitin was cleaved by UBP1 enzyme, and only p53 protein was dissociation as expected”.
